Results: the nanobody polyreactivity screen of Harvey et al. (2022)

Assay: yeast display, Sf9 membrane polyspecificity reagent, FACS + sequencing; frameworks hold sequencing errors
Outline: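 Galactose induction of a Saccharomyces cerevisiae BJ5465 synthetic nanobody display library ran 36–48 hours. The cells were then stained for 1 hour at 4 °C with 10% biotinylated, detergent-solubilized Sf9 membrane reagent, pulled down on streptavidin microbeads and FACS-sorted into low and high (top ~1%) gates on expression and reagent-binding fluorescence. Labels for polyreactivity follow the gate of origin.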

Row | Sequence | polyreactivity (PSR sort gate)
1 | QVQLVVSGGGLVQAGGSLRLSFAASGFIFRYYGGGWYTPAPGKERELVAAITSTGRRYYADSVKGRFTISRDNAKNTVYLQMNSLKPEDTAVYYCAKAWLRWCEDYWGQGTQVTVSS | low polyreactivity
2 | QVQHVESGGGIVQAGGSLRLSCAASGLTFVYYAMGWYRQAPGTERELVAAISSGGRTYYADSVKGRFTISRDNAKKTVYLQMNSLKPDDTAVYYCAAYGGTHYTYRYDYWGQGTQVTVSS | high polyreactivity
3 | QVQLVESGGGLVQAGGSHRLSCAASGSIFYSYAMGWYRQAPGKERELVAAITYDTGRTYYADSVKGRFTISRDNAKNTVYLQMNSLKPEDTAVYYCAVRPGYYWGYWPRFGYWGQGTQVTVSS | low polyreactivity
4 | QVQLVESGGGLVQAGGSLRLSCAASGSTFAVYGMGWYRQAPGKERELVAAISSSGARTYYADSVKGRFTISRDNAKNTVYLQMNSLKPEDTAVYYCAALPHRQAGYDYWGLGTQVTVSS | high polyreactivity
5 | QVQLVESGGGLVQAGGSLRLSCAASGYTFVYNAMGWYRQAPGKERELVAAITWGGAGTYYADSVKGRFTISRDNAKNTVYLQMNSLKPEDTAVYYCAAPSPRSSAYTYRGDYWGQGTQVTVSS | low polyreactivity
6 | QVQLVESGGGLVQAGGSLRLICAASGFIFPDYGMGWYRQAPGKERELVAAISRNGVSTYYADSLKRRFTISRDNAKNTVYLQMISLIPEDTAVYYCAARYYRIRRVSKSVYYWGQCTQVTVSS | low polyreactivity
7 | QVQLVESGGGLVQAGCSLRLICAASGLTFSRYTMGWYRQAPGKERELVAAISLSGGRTYYADSVKGRFTISRDNAKNTVYLQMNSLKPEDTAVYYCNARGTYHGQYYWGEGTQVTVSS | high polyreactivity
8 | QVQLVESGGGLVQAGGSLRLSCAASGITFTEYAMGWYRQAPGKERELVATISYGGGITYYADSVKGRFTISRDNAKNTVYLQMNSLKPEDTAVYYCAADGLSQVQRGMDYWGQGTQVNVSS | low polyreactivity
9 | QVQLVESGGGLVQAGGSLRLSCAASGSIFYWYAMGWYRQAPGKERELVAVISSGGSTYYADSVKGRFTISRDNAKNTVYLQMNSLKPEDTAVYYCNAGPLRSGRYTYYYWGQGTQVTVSS | low polyreactivity
10 | QVQLVESGGGLVQAGGSLRLSCAASGSTFYYYAMGWSRPAPGKERELVAAISTRGGSTYYADSVKGRFTISRDNAKNTVYLQMNSLKPEDTAVYYCAKKYGYFGLHGYWGQGTQVTVSS | high polyreactivity
11 | QVHLVESGGGLVQAGGSLRLSCAASRGIFHYYAMGWYRQAPGNERELVAAISWNTGSTYYADSVKGRFTISRDNAKNTVYLQMNSLKPEDTAVYYCAASYRSPWMRYDYWGQGTQVTVSS | high polyreactivity
12 | QVQLVESGGGLVQAGGSLRLSCADSGRIFPQYTMGWYRQAPGKERELVAGISYGGVSTYYADSVKGRFTISRDNAKNTVYLHMNSLKPEDTAVYYCARPYGYRGYLRYYWGQGTQVTVSS | high polyreactivity
13 | QVQLVESGGGLVQAGGSLRLSCAASGSTFKNNAMGWYRQAPGKEREFVASISKRGGSTYYADSEKGRFTISRDNAKNTVYLQMNSLKPEDTAVYYCAAEELRYGLYEYDYWGLGTQVTVSS | high polyreactivity
14 | QVQLVESGGGLVQAGGSLRLSCAASGNTFVAYAMGWYRQAPGKERELVAGITRGGTTYYADSVKGRFTISRDNAKNTVYLQMNSLKPEDTAVYYCAARLGYRYNYWGQGTQVTVSS | high polyreactivity
15 | QVHLVESGGGLVQAGGSLRLTCAASGFIFEYNAMGCYRQAPGKEREFVAAITSSGGSTYYADSVIGRFTISRDNAKNTVYLQMNSLKPEDTAVYYCARVRRSAYYKDYYYWGQGTQVTVSS | high polyreactivity
16 | QGQLVESGGGLVQGGGSLRLSCAACGSTLPSSARGWYIQAPGKDRELVAALRSGGTTNYADSVKGRFTISRDNAKNTVYVQMNSLKPEDTAVYYCATSRYLYWRSRYDYWGQGTQVTVSS | high polyreactivity
17 | QVQLVESGGGIVQAGGSLRLSCAGSGGILGDNTMGWYGHAPGKERELGASITRGGTTNYADSLTGRFTISREHAKNTVYFQKISLKPVDTAVYYCNAAVERFGDSPDYDYWGQGTQVTVSS | low polyreactivity
18 | QVQLVESGGGLVQAGGSLRLSCAASGRTFPRYVMGWYRQAPGKERDLVAAIRRSGGSTYYADSVKGRFTISRDNAKNTVYLQMNSLKPDDTAVYYCNRVVYTYISTGSRHGRYYYWGQGTQVTVSS | high polyreactivity
19 | QVHLVESGGGLVKAGGSLRLSCAASGSTSTLYAMGWYRQAPGKERELVAAISKSGGRTYYADSVKGRFTNSRDNAKNTVYLQMNSLKPEDTAVYYCNTVPGRYRTFDYWGQGTQVTVSS | high polyreactivity
20 | QVQLEESGGGLVQAGGSLRISCAASGRTFYVNAMGRSRQAPGKERELVAAIRYSDGRTYYADSVKGRFTISRDNAKNTVYLQMNSLKPEDTAVYYCAADTRFISRENYWGQGTQVTVSS | high polyreactivity

Row | Sequence | polyreactivity (PSR sort gate)
21 | QVQRVESGGGLVQAGGSLRLSCAASGRTFGPNAMGCYRQSPGKERELVAAITSGGRTYYADSVKGRFTISRDNAKNTVYLQMNSLKPEDTAVYYCAASYRWRSSGKGKYDYWGQGTQVTVSS | high polyreactivity
22 | QVQLVESGGGLVQAGGSLRLSCAASGSTFARNVMGWYRQAPGKERELVAAISWRGGRTYYADSVKGRFTISRDNAKNTVYLQMNSLKPEDTAVYYCNAVKRLKVTHSYEYGYWGQGTQVTVSS | high polyreactivity
23 | QDQLVESGGGLVQAGGSLRLSCAASGSTFSNYAMGWYRQAPGKERELVASISQSGGSTYYADSVKGRFTISRDNAKNTVYLQMNSLKPEDTAVYYCAADVAQVGYQVGVSEIYPGYEYWGQGTQVTVSS | low polyreactivity
24 | QVQLVESGGGLVQAGGSLRLSCAASGFIFEYYVMGWYRQAPGKERELVAAISSSDGSTNYADSVKGRFTISRDNAKNTVYLQMNSLKPEDTAVYYCAKDLLKSYNRVVVDADDYWGQGTQVTVSS | low polyreactivity
25 | HVRLQESGGGLVQAGGSLRQSCAASGAISPYYDMGWYRLAPGKEREFVASIAHGGTTYYADSVKGRFTTSRDNAKNTVYLQMNSLKPEDTAVYYCAVAYDVWHSHIYRGQGTQVTVSS | high polyreactivity
26 | QVQLVESGGGLVQAGGSRRLSCAASGSTFDFYVMGWYRQAPGKERELVAAIRWSGGSTYYADSVKGRFTISRDNAKNTVDLPMTRLKPEDTAVDYCPADGDHYGYSYYYGYGYWGQGTQVTVSS | high polyreactivity
27 | QVQLVESGGGLVQAGGSLRLSCAASGRIFSAYAMGWYRQAPGKERELVAAISSGGRTYYADSVKGRFTISRDNAKNTVYLEMYRLKPEDTAVYFCNAVALWGRDYGYWGQGTQVSVSS | high polyreactivity
28 | QVQLVESGGGLVQAGGSLRLSCHASGRIIVPYVMGWYRQAPGKERELVASISDSDTSTYYADSVKGRFTMSRDNAKNTVYLQMNSLKPEDTAVYYCNVDFWGQGTQVTVSS | low polyreactivity
29 | QVQLVESGGGLVQAGGSLRLSYAASGSTFRVYAMGWYRQAPGKERELVAAISRSGGRTYYADSVKGRFTISRDNAKNTVYLQMNSLKPEDTAVYYCAADYKYTAVSDDYWGQGTQVTVSS | high polyreactivity
30 | QVQLVESGGGLVQAGGSLRLSCAASGFIFLYAMGWSRQAPRKERELVAAISWSDTSTYYADSVKGRFTISRDNAKNTVYLQMNSLIPEDTAVYFCNAETWNYGDFDYWGQGTQVTVSS | high polyreactivity
31 | QVQLVESGGGLVQAGGSLRLSCAASGSIFYFNAMGWYRQAPGKEMELVATIRSGDGRTYYADSVKGRFTISRDNAKNTVYLQMNSLKPEDTAVYYCNASRVVYRQAYLYGYDYWGQGTQVTVSS | low polyreactivity
32 | QVQLVESGGGLVQAGGSLRLSSAASGSTFTSYAMGWYRQAPGKERELVAAINYSGGSTYYADSVKGRFTISRDNAKNNVYLQMNILKQEDTAVYDCAADGYIRQYVTYYYWGQGTQVTVSS | low polyreactivity
33 | QVQLVESGGGLVQAGGSLRLSCAASGSTFAGYVMGFYIQATGKERELVAAISGSGGSTYYADSVKGRFTISRDNAKKTVYLQMNSLKPEDTAVYYCAKRAIIKYRGGYGYWGQGTQVTVSS | high polyreactivity
34 | QVQLVESGGGLVQAGGSLRLRCAASGSTFDVYAMGWYRQAPGKERELVASISITDGSTYYADSVKGRFTISRDNAKNTVYLQMNSLIPEVTAVYYCAAEYHTLSKYSGYATHVYWGQGTQVTVSS | low polyreactivity
35 | QVQLVESGGGLVQAGGSLRLSCAASGSIFGSYAMGWYRQAPGKERELVAAITSGGSTYADSVKGPFTISRDNPNKTVYLQMNSQKPDDTAVYYSNAKFYHSTSTLVQSEYDYWGQGTQVSVSS | low polyreactivity
36 | QVQLVESGGGLVQAGGSLRLSCAASGSIFGRYAMGWYRQAPGKERELVATITFRDTSTYYADSVKGRFTISRDTAKYTVLLLMNSLKPEDTAVYYCAAVRADLWDIARYDYWGQGTQETVSS | low polyreactivity
37 | QVQLVESGGGIVQAGGRHRLSCAASGRTFWRNPMGWYSPAPGKERELVASIRITGGSTYYADSVMGRFTISRDNAKTTVYLQMNSLNAEDTAVYYCPASSGIRFVGLSYPIGNYYYWGQGSQVTVSS | high polyreactivity
38 | QVQLVESGGGLVQAGGSLRLSCAASGNIFGGNAMGWYRQAPGKERELVAAITRGGSTYYADSVKGRFTISRDNAKNTVYLQMNSLTPEDTAVYYCAAQLFKWKNRQSLWFDHGYYWGQGTQLTVSS | low polyreactivity
39 | QVQLVESGGGLVQAGGSLRLSCAASGFTFNKYDMGWYRQAPGKERELVAVITWSGGSTYYADSVKGRFTISRDNAKNTVYLQMKSLKPEDTAVYYCNAEAPRYTYGRMDYWGQGTQVTVSS | low polyreactivity
40 | QVQLVESGGGLVQAGGSLRLSCAASGGTFRVYAMGWYRQAPGKERELVAAITGRGGSTYYADSVKGRFTISRDNAKNTVYLQMNSLKPEDTAVYYCNKESELVEYDYWGQGTQVTVSS | low polyreactivity
